From patent US10006010B2, “Cytochrome P450 fusion protein” (The University of York, priority 2014, dated 2018)

Legend:
[1] = Enzyme assay on soluble/microsomal preparations of S. cerevisiae expressing STORR fusion or modules, substrate 1,2-dehydroreticuline; format: biochemical; settings: soluble or microsomal preparations from S. cerevisiae; 100 μM substrate, 1 mM NADPH, 37° C. 3 hours
Text: (§1) Genscript created synthetic DNA sequences were created for PsCPR [Genbank accession AAC05021, (Rosco A. et al. (1997) Arch. Biochem. Biophys. 348, 369-77), the full length STORR (CYP82Y2-Oxidoreductatse (“Oxired”)) protein, the N-terminal CYP82Y2 module and C-terminal oxidoreductase (Oxidoreductase) module, that were codon optimised for expression is Saccharomyces cerevisiae. The codon-optimized sequences are provided with the SEQ ID NO 30-33.
(§2) Expression vector pESC-TRP::soloxired was created by digesting the corresponding PCR product with NotI and PacI and inserting this behind the GAL10 promoter of pESC-TRP. pESC-TRP::CPR was created by digesting the corresponding PCR product with BamHI and XhoI and inserting this behind the GAL1 promoter of pESC-TRP. This was then used to created pESC-TRP::CPR::CYP82Y2 and pESC-TRP::CPR::CYP82Y2-Oxidoreductase. These plasmids were then transformed in S. cerevisiae G175 (Sorger D. et al. (2004) J. Biol. Chem. 279, 31190-6) using lithium acetate protocol (Geitz R. D. and Woods R. A. (2002) Methods in Enzymology 350, 87-96). Yeasts were cultivated in Synthetic Defined (SD) medium composed of 2% carbon source, 0.5% ammonium sulfate, 1.7 g L^−1 yeast nitrogen base (without amino acids and ammonium sulfate) and 1.92 g L^−1 or tryptophan drop-out supplement (Sigma-Aldrich, Gillingham, UK). Cultures grown using glucose as a carbon source were used to inoculate 200 ml cultures with raffinose as a carbon source to an OD 600 nm of 0.10 in 1 L conical flasks. […]
(§3) Enzymes assays were set up in 250 μL volumes containing final concentrations of 50 mM Bis-tris propane buffer, 1 mM NADPH and 100 μM of substrate. […] The extract was then dissolved in 100 μL of 50:50:0.1 hexane/ethanol/diethylamine and analysed by the chiral HPLC method to determine the relative amounts of (R)- and (S)-reticuline.
(§4) Poppy capsules were processed and analysed by UPLC-MS and R-scripts as previously described (“the standard method”; (Winzer T. et al. (2012) Science 336, 1704-8)). […]

[2] = Enzyme assay on microsomal preparations of S. cerevisiae expressing STORR fusion or modules, substrate (S)-reticuline; format: biochemical
Text: as §1, §2, §3, §4

Molecule | conversion efficiency of 1,2-dehydroreticuline to (R)-reticuline [1] | accumulation of 1,2-dehydroreticuline during conversion of (S)- to (R)-reticuline ([2]; microsomal fractions harboring the fusion protein) | added (S)-reticuline converted to (R)-reticuline ([2]; microsomal preparations from S. cerevisiae, with CPR, 100 μM substrate, 37° C. 3 hours) | conversion of (S)-reticuline to 1,2-dehydroreticuline ([2]; microsomal preparations from S. cerevisiae, with CPR redox partner, 100 μM substrate, 37° C. 3 hours) [%]
STORR fusion: Full length CYP82Y2-oxidoreductase fusion protein (SEQ ID NO 1; codon optimized SEQ ID NO 31) expressed with PsCPR in S. cerevisiae (protein, listed as Papaver somniferum, co-expressed with PsCPR) MELQYISYFQPTSSVVALLLALVSILSSVVVLRKTFLNNYSSSPASSTKTAVLSHQRQQSCALPISGLLHIFMNKNGLIHVTLGNMADKYGPIFSFPTGSHRTLVVSSWEMVKECFTGNNDTAFSNRPIPLAFKTIFYACGGIDSYGLSSVPYGKYWRELRKVCVHNLLSNQQLLKFRHLIISQVDTSFNKLYELCKNSEDNHGNYTTTTTTAAGMVRIDDWLAELSFNVIGRIVCGFQSGPKTGAPSRVEQFKEAINEASYFMSTSPVSDNVPMLGWIDQLTGLTRNMKHCGKKLDLVVESIINDHRQKRRFSRTKGGDEKDDEQDDFIDICLSIMEQPQLPGNNNPSQIPIKSIVLDMIGGGTDTTKLTTIWTLSLLLNNPHVLDKAKQEVDAHFRTKRRSTNDAAAAVVDFDDIRNLVYIQAIIKESMRLYPASPVVERLSGEDCVVGGFHVPAGTRLWANVWKMQRDPKVWDDPLVFRPDRFLSDEQKMVDVRGQNYELLPFGAGRRVCPGVSFSLDLMQLVLTRLILEFEMKSPSGKVDMTATPGLMSYKVIPLDILLTHRRIKPCVQSAASERDMESSGVPVITLGSGKVMPVLGMGTFEKVGKGSERERLAILKAIEVGYRYFDTAAAYETEEVLGEAIAEALQLGLVKSRDELFISSMLWCTDAHADRVLLALQNSLRNLKLEYVDLYMLPFPASLKPGKITMDIPEEDICRMDYRSVWAAMEECQNLGFTKSIGVSNFSCKKLQELMATANIPPAVNQVEMSPAFQQKKLREYCNANNILVSAISVLGSNGTPWGSNAVLGSEVLKKIAMAKGKSVAQVSMRWVYEQGASLVVKSFSEERLRENLNIFDWELTKEDHEKIGEIPQCRILSAYFLVSPNGPFKSQEELWDDEA | 100% | no detectable accumulation | about 20% | 
CYP82Y2 module: N-terminal CYP82Y2 module of STORR (codon optimized SEQ ID NO 32) expressed with opium poppy CPR redox partner in S. cerevisiae (protein, co-expressed with poppy CPR in yeast; Yeast codon optimized CYP82Y2) MELQYISYFQPTSSVVALLLALVSILSSVVVLRKTFLNNYSSSPASSTKTAVLSHQRQQSCALPISGLLHIFMNKNGLIHVTLGNMADKYGPIFSFPTGSHRTLVVSSWEMVKECFTGNNDTAFSNRPIPLAFKTIFYACGGIDSYGLSSVPYGKYWRELRKVCVHNLLSNQQLLKFRHLIISQVDTSFNKLYELCKNSEDNHGNYTTTTTTAAGMVRIDDWLAELSFNVIGRIVCGFQSGPKTGAPSRVEQFKEAINEASYFMSTSPVSDNVPMLGWIDQLTGLTRNMKHCGKKLDLVVESIINDHRQKRRFSRTKGGDEKDDEQDDFIDICLSIMEQPQLPGNNNPSQIPIKSIVLDMIGGGTDTTKLTTIWTLSLLLNNPHVLDKAKQEVDAHFRTKRRSTNDAAAAVVDFDDIRNLVYIQAIIKESMRLYPASPVVERLSGEDCVVGGFHVPAGTRLWANVWKMQRDPKVWDDPLVFRPDRFLSDEQKMVDVRGQNYELLPFGAGRRVCPGVSFSLDLMQLVLTRLILEFEMKSPSGKVDMTATPGLMSYKVIPLDILLTHRRIKPCVQSAASERD | not |  |  | ~100
